Earlier results on one molecule are cited in US10507248B2, “Hydrophobic core carrier compositions for delivery of therapeutic agents, methods of making and using the same” (PharmaIn Corporation, priority 2005, dated 2019).

For the data set the following is noted: in vivo.

B1: native EGF: native Epidermal Growth Factor with short biological half-life (protein, UniProt P01133 23-1207, looked up)
Pro-epidermal growth factor: PQHWSCPEGTLAGNGNSTCVGPAPFLIFSHGNSIFRIDTEGTNYEQLVVDAGVSVIMDFHYNEKRIYWVDLERQLLQRVFLNGSRQERVCNIEKNVSGMAINWINEEVIWSNQQEGIITVTDMKGNNSHILLSALKYPANVAVDPVERFIFWSSEVAGSLYRADLDGVGVKALLETSEKITAVSLDVLDKRLFWIQYNREGSNSLICSCDYDGGSVHISKHPTQHNLFAMSLFGDRIFYSTWKMKTIWIANKHTGKDMVRINLHSSFVPLGELKVVHPLAQPKAEDDTWEPEQKLCKLRKGNCSSTVCGQDLQSHLCMCAEGYALSRDRKYCEDVNECAFWNHGCTLGCKNTPGSYYCTCPVGFVLLPDGKRCHQLVSCPRNVSECSHDCVLTSEGPLCFCPEGSVLERDGKTCSGCSSPDNGGCSQLCVPLSPVSWECDCFPGYDLQLDEKSCAASGPQPFLLFANSQDIRHMHFDGTDYGTLLSQQMGMVYALDHDPVENKIYFAHTALKWIERANMDGSQRERLIEEGVDVPEGLAVDWIGRRFYWTDRGKSLIGRSDLNGKRSKIITKENISQPRGIAVHPMAKRLFWTDTGINPRIESSSLQGLGRLVIASSDLIWPSGITIDFLTDKLYWCDAKQSVIEMANLDGSKRRRLTQNDVGHPFAVAVFEDYVWFSDWAMPSVMRVNKRTGKDRVRLQGSMLKPSSLVVVHPLAKPGADPCLYQNGGCEHICKKRLGTAWCSCREGFMKASDGKTCLALDGHQLLAGGEVDLKNQVTPLDILSKTRVSEDNITESQHMLVAEIMVSDQDDCAPVGCSMYARCISEGEDATCQCLKGFAGDGKLCSDIDECEMGVPVCPPASSKCINTEGGYVCRCSEGYQGDGIHCLDIDECQLGEHSCGENASCTNTEGGYTCMCAGRLSEPGLICPDSTPPPHLREDDHHYSVRNSDSECPLSHDGYCLHDGVCMYIEALDKYACNCVVGYIGERCQYRDLKWWELRHAGHGQQQKVIVVAVCVVVLVMLLLLSLWGAHYYRTQKLLSKNPKNPYEESSRDVRSRRPADTEDGMSSCPQPWFVVIKEHQDLKNGGQPVAGEDGQAADGSMQPTSWRQEPQLCGMGTEQGCWIPVSSDKGSCPQVMERSFHMPSYGTQTLEGGVEKPHSLLSANPLWQQRALDPPHQMELTQ
modifications: Pro-epidermal growth factor
In the case of B1, the biological half-life result is “few minutes”.
